# Tested on: UbG-DsRx
substance,measurement,value
caspase-3,red fluorescence (DsRed) in live transgenic zebrafish embryos,A control embryo (FIG. 1b) injected with a construct where the linker does not contain a cleavage site doesn't express any detectable red fluorescence (FIG. 1c)
